Reference: patent US7795390B2, “Biological substance nesfatin and its related substances and uses thereof” (Teijin Pharma Limited, priority 2005, dated 2010)

Experiments:
Agouti-yellow mice = assay: Intraperitoneal administration of nesfatin-1 to Agouti-yellow mice, food intake; assay type: in vivo, mouse; settings: nesfatin-1 (10 pmol) ip, 0-3 hours
Source text: In the experiment on the animal model of obesity, C57BL/6J mice were used as the control group and Agouti-yellow mice were used as the animal model of obesity, and these animals were purchased from Nippon Charles River (Jackson Lab.). The housing condition and the week age of the mice used were similar to those for the ICR mice, whereas individuals weighing 25-28 g for the control group mice and individuals weighing 31-38 g for the Agouti-yellow mice were selected and used. […] Other conditions were similar to those in the above.
Each mouse that received administration was placed in an individual cage, and during 0-3 hours after the administration the weight decreased of the pellet food was measured to determine the amount of food intake. For testing of significant difference, analysis of variance was used.

Wistar rats = assay: Intraventricular continuous administration of nesfatin-1 by osmotic pump, food intake and body weight; assay type: in vivo, rat
Protocol: The administration of nesfatin-1 was carried out into the ventricle by an osmotic pump for 10 consecutive days. Among 8 week-old male Wistar rats (purchased from Nippon SLC), those individuals weighing 200-250 g were used. The rats received intraperitoneal administration of 40 mg/kg body weight of pentobarbital sodium for anesthesia. After the hair was removed from the head, they were fixed in a brain stereotaxic apparatus (David Kopf Instruments, Model 962) and the scalp was incised and a 23G needle (guide cannula) was implanted so that the tip reaches the third ventricle (2.5 mm behind the bregma, 9.5 mm from the surface). One week after implanting the guide cannula, the animals were subjected to the experiment. The osmotic pump used was Alzet's Model 2002. Nesfatin-1 (nesfatin-1 administration group) dissolved in physiological saline that was filter-sterilized with a 0.22 μm Millex GV filter (Millpore Co. Ltd.), or sterilized physiological saline alone (control group) were injected into the osmotic pump immediately before use, and were primed in sterilized physiological saline from the day before use. The osmotic pump to which each sample was connected to a tube connected to the injection cannula, and through the guide cannula previously implanted the injection cannula was fixed so that the tip of the cannula reaches the third ventricle of the rat. In this form of use, the sample is injected to the third ventricle at a flow rate of 12 μl per 24 hours, and in the nesfatin-1 administration group, it is equivalent to 5 pmol of nesfatin-1 per day administered to the ventricle. […] The measurement of the amount of food intake started from the day after the cannula and the osmotic pump were implanted, and the weight of the residual food was measured at 9 a.m. every day, and by determining the difference from the weight of the food on the previous day, the amount of food intake of the day (24 hours) was calculated. From day 6 after the start of administration, body weight was measured at the time of measuring the amount of food intake, and changes in body weight were also recorded.

Zucker fa/fa rats = assay: nesfatin-1 administration into the third ventricle of Zucker fa/fa rats, food intake; assay type: in vivo, rat; settings: recombinant mouse nesfatin-1 5 pmol
Protocol: (§1) As rats, 8 week-old male Zucker fa/fa (Zucker) rats and Zucker +/+(Lean) rats as the control animal were purchased from Nippon Charles River, and were housed in a cycle of 12 hours of the light period from 6 a.m. to 6 p.m. and 12 hours of the dark period from 6 p.m. to 6 a.m. the next morning and fed a powder food (Nippon Clea, CE-2), and kept at 22° C., and throughout the experiment period, a similar condition was continued in housing. After preliminary housing of the purchased rats for over one week, individuals weighing 200-250 g were selected from among 9 to 10 week-old individuals.
(§2) The sample used for administration was one in which the recombinant mouse nesfatin-1 prepared in Working Example 16 was dissolved to 5 pmol in 5 μl of PBS, and as the control sample physiological saline (Saline) was used. Five μl of the samples prepared were administered into the third ventricle of each rat for the group of five each of Zucker rats and the Lean rats per group (the Zucker/nesfatin-1 group, the Lean/nesfatin-1 group, the Zucker/Saline group, the Lean/Saline group). […]
(§3) After intraventricular administration, the amount of food intake was determined by measuring the amount decreased of the powder food for each rat during 0-1 hour, 1-3 hours and 3-6 hours. […]

Zucker +/+ (Lean) rats = assay: nesfatin-1 administration into the third ventricle of Zucker +/+ (Lean) rats, food intake; assay type: in vivo, rat; settings: recombinant mouse nesfatin-1 5 pmol
Protocol: as §1, §2, §3

[1] = 5 pmol per day, osmotic pump, third ventricle, 10 consecutive days, vs saline
[2] = 0-1 hour and 1-3 hours, P<0.001 vs Saline

B1: nesfatin-1: 82-residue peptide, amino acid Nos. 25 to 106 of nesfatin (SEQ ID NO: 15), solid-phase synthesis (peptide, listed as Rattus norvegicus)
chain: VPIDVDKTKVHNVEPVESARIEPPDTGLYYDEYLKQVIEVLETDPHFREKLQKADIEEIRSGRLSQELDLVSHKVRTRLDEL
amount of food intake (Agouti-yellow mice): significantly decreased
amount of food intake of the day (24 hours) (Wistar rats; [1]): a decrease in the amount of food intake was noted from day 1
rate of increase in body weight (Wistar rats; [1]): significantly declined
food intake and/or body weight gain (Wistar rats; recombinant highly purified nesfatin-1 (Working Example 16), intraventricular as in Working Example 13): the effect of suppressing food intake and/or suppressing body weight gain was noted
amount of food intake (Zucker fa/fa rats; [2]): significant reduction
amount of food intake (Zucker fa/fa rats; 3-6 hours, P<0.05): significant reduction
amount of food intake (Zucker +/+ (Lean) rats; [2]): decreased
amount of food intake (Zucker +/+ (Lean) rats; 3-6 hours): No difference
